Test results as given in the supplement of paper PMC12042874.
± gives the uncertainty stated by the source.

Assays:
[1] = amyloid nucleation score (Sup35N fusion, yeast selection) (log enrichment); library NNK2; higher = more nucleation; inactive = no reads after selection
How it was run: (§1)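 In psi-negative yeast, Sup35N fusions carrying peptides of 20 random codons were induced with 100 μM copper sulfate for 24 hours. The cells then grew 7 days at 30°C on medium lacking adenine and uracil, and plasmid inserts from input and output were Illumina-sequenced, excluding sequences with under 100 input reads. Nucleation score is the DiMSum log enrichment of output over input reads, centred on the mode score of non-aggregating sequences.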

[2] = amyloid nucleation score (Sup35N fusion, yeast selection) (log enrichment); library NNK3; higher = more nucleation; inactive = no reads after selection
How it was run: as §1

RMYLRSIVKSLMAWQRLGRI
amyloid nucleation score [1]: -0.545 ± 0.55

VRLVNAVNRRTKIHDIYLRV
amyloid nucleation score [1]: 0.664 ± 0.26

QYYVGYLT
amyloid nucleation score [1]: -0.738 ± 0.61

GNMKCQVTLILMSTSDIREL
amyloid nucleation score [1]: 7.039 ± 0.041

GVPALGFGLAGLTVACFAEE
amyloid nucleation score [1]: -0.097 ± 0.34

NQITDMLIFWFVGIRWFYSE
amyloid nucleation score [1]: 0.679 ± 0.81

YEYDLSPCSVVRRVTLKRMV
amyloid nucleation score [1]: 1.55 ± 0.4

YFCSVSRFRVLDSDYYRKGW
amyloid nucleation score [1]: -0.817 ± 1.1

WVTWLISCCYNRLEQGCLAF
amyloid nucleation score [1]: 0.097 ± 0.63

LLCRTCFRVQYAYDNLVMFL
amyloid nucleation score [1]: inactive

FLFLTTVSPRWTYRCTRFLG
amyloid nucleation score [1]: 4.64 ± 0.055

NQTPLMLACSADFHSISSWT
amyloid nucleation score [1]: 0.365 ± 0.4

PSTIGQYITR
amyloid nucleation score [1]: -0.119 ± 0.49

FTASFFP
amyloid nucleation score [1]: 0.05 ± 0.26

VWFMEVNVKYECTPSYEGRL
amyloid nucleation score [1]: 3.81 ± 0.073

NYFVNSI
amyloid nucleation score [1]: inactive

CDVFMQAKIASVMGYDVQRA
amyloid nucleation score [1]: -0.225 ± 0.41

TSFSG
amyloid nucleation score [1]: 0.56 ± 0.38

SDFIAGVKLSRNFDGRG
amyloid nucleation score [1]: -0.097 ± 1.1

GIGLRLCLSDRLWMRSIYVD
amyloid nucleation score [1]: 3.56 ± 0.082

GPMRGC
amyloid nucleation score [1]: -0.548 ± 1.1

CNRAQLNVSPNLDDMRKFGV
amyloid nucleation score [1]: -0.506 ± 1

GMIGNTIGNECTIYLNDQYV
amyloid nucleation score [1]: 0.825 ± 0.34

YVPPQWRIVDRNVSY
amyloid nucleation score [1]: 0.012 ± 1

VTIRDLFYGHVRQPDSQVVI
amyloid nucleation score [1]: 0.883 ± 0.52

SLRNDGFNLDPVLHALFVEL
amyloid nucleation score [1]: -0.306 ± 0.63

VDANIHWTCNSG
amyloid nucleation score [1]: 0.322 ± 0.38

NLTNRYFNFSRTEPCNKYLT
amyloid nucleation score [1]: 0.895 ± 0.81

PSGPSHIYGWYDSFHNCSYN
amyloid nucleation score [1]: -0.369 ± 0.49

GSCNRKRHDVAYHLKCGMVA
amyloid nucleation score [1]: 1.09 ± 0.14

VTNSSMQMSSWADPSVKSGM
amyloid nucleation score [1]: 0.032 ± 0.32

LYKVYVFYNNNVVMVRLALK
amyloid nucleation score [1]: inactive

CCISMDVLWRLSEQP
amyloid nucleation score [1]: 6.385 ± 0.05

FHFKLRGWPGRGVTSMGS
amyloid nucleation score [1]: -0.873 ± 0.62

GRGERCKGSKIGCSRKAKID
amyloid nucleation score [1]: 0.98 ± 0.3

SRSVEGLKLWATNSAGHVVA
amyloid nucleation score [1]: 0.958 ± 0.3

CGILYSFDGRFVYWSSYGSS
amyloid nucleation score [1]: -0.353 ± 0.79

VWEGTGPLEICWFCWGEW
amyloid nucleation score [1]: 2.5 ± 0.17

AFYWVWDLDSGICNVSIFRL
amyloid nucleation score [1]: -0.995 ± 0.34

VCYAGLLAKRLRLVVVSGNV
amyloid nucleation score [1]: 0.531 ± 0.26

NTNASDWRGAMLLSCMRFYS
amyloid nucleation score [1]: -0.257 ± 0.42

MSVMWLASLISFQLFMAAQL
amyloid nucleation score [1]: 0.062 ± 0.79

EFFALMDARVFVSVMLQEVD
amyloid nucleation score [1]: -0.268 ± 0.63

EKYRGSLMSRLAKMWNCCVT
amyloid nucleation score [1]: 1.04 ± 0.27

RGTNQSSVSMRGAL
amyloid nucleation score [1]: 0.523 ± 0.36

GFIISFYISDSCKSLCWQPM
amyloid nucleation score [1]: 0.339 ± 0.53

WLIKPVAPLSVYWSVWWSVV
amyloid nucleation score [1]: 0.3 ± 0.55

THIITWSVNFTKGWQCFESQ
amyloid nucleation score [1]: 1.36 ± 0.38

NYLYHLPYLRTSVLRRLRPV
amyloid nucleation score [1]: 0.426 ± 0.3

VSYEVVINRYFGKHCCGTII
amyloid nucleation score [1]: inactive

SLGHGKYMVCWGWYALGFYK
amyloid nucleation score [1]: -0.368 ± 0.28

GIMYGEFMPLR
amyloid nucleation score [1]: inactive

FFTANPV
amyloid nucleation score [1]: 0.335 ± 0.64

AALNDNTSL
amyloid nucleation score [1]: 5.71 ± 0.079

GFLIKWNNGVLVLVSAMMCI
amyloid nucleation score [1]: -0.598 ± 0.4

ANHVSKDIFVNCEVKVPHVW
amyloid nucleation score [1]: 5.937 ± 0.051

VDPPLGKWGAEGCI
amyloid nucleation score [1]: 0.484 ± 0.51

VSVKRGAPKVGSTGPVYTCG
amyloid nucleation score [1]: -0.306 ± 0.5

RYMGVMVYKAPPRRTWCGKV
amyloid nucleation score [1]: -0.237 ± 0.41

FGTILGSLVLVIWI
amyloid nucleation score [1]: inactive

LGYKVSK
amyloid nucleation score [1]: 2.63 ± 0.19

NDCMGWH
amyloid nucleation score [1]: inactive

IVSEIFSG
amyloid nucleation score [1]: -0.369 ± 1.1

GDVLPNTSTGIFFSQPIMCA
amyloid nucleation score [1]: 0.501 ± 0.43

RWCSVGNLVRSITR
amyloid nucleation score [1]: 0.464 ± 0.57

VRIFSVCYKHLMGHCSSSA
amyloid nucleation score [1]: -0.398 ± 0.31

LHCLAISFNNFSLMVLYAGN
amyloid nucleation score [1]: -0.187 ± 0.54

RGLLHFIFVITQYKGIYSNV
amyloid nucleation score [1]: inactive

KFVYSGGLFTMLRSC
amyloid nucleation score [1]: -0.414 ± 0.61

TGNVCQDEVNAIGRFP
amyloid nucleation score [1]: -0.864 ± 0.38

WWRRRCR
amyloid nucleation score [1]: 0.224 ± 0.3

MVAYFPMSPG
amyloid nucleation score [1]: -0.076 ± 0.24

KGNEY
amyloid nucleation score [1]: -0.757 ± 0.64

EFSSTTSALGKDVRVFNFAI
amyloid nucleation score [1]: -1.26 ± 0.62

FNYPSLFTF
amyloid nucleation score [1]: -1.01 ± 1.1

ETFNCNFVWL
amyloid nucleation score [1]: 4.83 ± 0.1

IFRNWGYSTFSHE
amyloid nucleation score [1]: inactive

GVHYEKEGVRTSVFSDLSWE
amyloid nucleation score [1]: -0.021 ± 0.3

SYDFSSINRDKTSSSRSLPR
amyloid nucleation score [1]: -0.474 ± 1

ERYIRF
amyloid nucleation score [1]: 0.187 ± 0.32

ADLWKLGLRAILELGPL
amyloid nucleation score [1]: -0.165 ± 1

SSVEAELICLWKFCTTHVCT
amyloid nucleation score [1]: 0.168 ± 0.56

YLVDTSCRVGWTDVYFPVRV
amyloid nucleation score [1]: inactive

PWWLWVGSMYENYGFAPFWV
amyloid nucleation score [1]: -0.969 ± 0.3

IVGVTYFCGSNRIIMMNGVL
amyloid nucleation score [1]: 5.956 ± 0.052

SAFDKASERLCSESVYKGKN
amyloid nucleation score [1]: 1.7 ± 0.099

LTLLHFRREDTHCSGTGTPC
amyloid nucleation score [1]: 1 ± 0.2

GIIISRSNKLFFVKCCNN
amyloid nucleation score [1]: 1.7 ± 0.079

NDSQTTLGLFDCRVREADHR
amyloid nucleation score [1]: -0.003 ± 1.1

FTILRDFC
amyloid nucleation score [1]: 0.152 ± 0.77

EARILIKLLI
amyloid nucleation score [1]: 2.58 ± 0.091

RGFNGSLR
amyloid nucleation score [1]: 0.552 ± 0.4

TMLFTALDASHWG
amyloid nucleation score [1]: 6.696 ± 0.05

CFIRFSRMGLFLFCLPKNLQ
amyloid nucleation score [1]: -1.59 ± 0.53

VSSLFIEDFFFNRTSVMYIG
amyloid nucleation score [1]: 0.103 ± 0.25

IYDLSCAKARLYVASHSLTL
amyloid nucleation score [1]: 0.418 ± 0.31

SFKISDYDECSCFKFYMAPI
amyloid nucleation score [1]: 7.08 ± 0.082

MTWARRRSINIYDRHLRMAG
amyloid nucleation score [1]: -0.388 ± 1

NWPETT
amyloid nucleation score [1]: 2.48 ± 0.19

DEKIYLVSG
amyloid nucleation score [1]: 0.472 ± 0.66

NTMMGV
amyloid nucleation score [1]: -0.724 ± 0.64

YCFFKVKTDLKTMCELGSTA
amyloid nucleation score [1]: -0.122 ± 0.55

NRYYYISSQGDDMQAGCFHY
amyloid nucleation score [1]: -0.963 ± 1.1

PCSLLKNWYIEAYTALQNIG
amyloid nucleation score [1]: 0.383 ± 0.74

ECVDCESIEMEAVSC
amyloid nucleation score [1]: 1.26 ± 0.16

SHSYGTER
amyloid nucleation score [1]: 4.64 ± 0.074

DCPLFQRLYRQS
amyloid nucleation score [1]: -0.211 ± 0.22

RFDWVA
amyloid nucleation score [1]: -0.038 ± 0.45

SAFSFAIVIYFRLCKVGLVD
amyloid nucleation score [1]: -0.92 ± 1.1

HDKVCTSLRVVDQCLRPGH
amyloid nucleation score [1]: 0.608 ± 0.38

NRCWGDHEV
amyloid nucleation score [1]: 0.435 ± 0.39

IWSYLRSSASWPMNASNTSA
amyloid nucleation score [1]: 0.905 ± 0.34

RRTICCCSIVCGRGNGSLDL
amyloid nucleation score [1]: 6.257 ± 0.056

RWEMLPVKSHNNLRIRK
amyloid nucleation score [1]: -0.293 ± 0.31

AWRMCTV
amyloid nucleation score [1]: 0.302 ± 0.33

RADTRFVAMGFGCRNVKPAV
amyloid nucleation score [1]: -0.296 ± 0.54

SLWVMKCDKDTKYADRSFTL
amyloid nucleation score [1]: -0.632 ± 1.1

RLCAWEVNPARSKAGAV
amyloid nucleation score [1]: 0.886 ± 0.57

RGFWRVFGCRHIVATPFEVE
amyloid nucleation score [1]: 8.675 ± 0.058

NLCFCALCGKYIRVNVVAM
amyloid nucleation score [2]: 1.52 ± 0.088

NFQTNGTLKHNN
amyloid nucleation score [2]: inactive

RYVAVCSK
amyloid nucleation score [2]: inactive

QYTCDDSCILFCCASWAEWS
amyloid nucleation score [2]: 2.34 ± 0.081

NMFPGSISLEWWGGTQLRWE
amyloid nucleation score [2]: 0.909 ± 0.23

RVNRRWDSLS
amyloid nucleation score [2]: inactive

EGSEGSDMSRTFFYICYFIL
amyloid nucleation score [2]: inactive

CVAKK
amyloid nucleation score [2]: inactive

MMVRWEVTV
amyloid nucleation score [2]: -0.172 ± 1
